These are literature values, as cited in PMC4271544.

For the data set, the target named is Capping protein (CP) (Homo sapiens) (UniProt P52907).

For the substance V-1 (myotrophin) (from UniProt P58546), the dissociation constant Kd (usually a measure of binding affinity in units of concentration) was 40 nM.
